The test system of test [1] is Hsp90 complexes in Mia-PaCa-2 cell extract. Nature of the test: Nano-LC-MS/MS of PU-beads pull-downs. The class given is binding, human. The conditions noted are these: protein identified in PU-beads pull-down of Mia-PaCa-2 cell extract; QSTAR-Elite QTof MS. The method, then:
(§1) Lysates prepared as mentioned above were first pre-cleaned by incubation with control beads overnight at 4° C. […] Beads were washed with lysis buffer, proteins eluted by boiling in 2% SDS, separated on a denaturing gel and Coomassie stained according to manufacturer's procedure (Biorad). […] Analyses of the batch purified pools were done using a QSTAR-Elite hybrid quadrupole time-of-flight mass spectrometer (QTof MS) (AB/MDS Sciex), equipped with a nano spray ion source. Peptide mixtures (in 20 μL) are loaded onto a trapping guard column (0.3×5-mm PepMap C18 100 cartridge from LC Packings) using an Eksigent nano MDLC system (Eksigent Technologies, Inc) at a flow rate of 20 μL/min. […] Electrospray ionization (ESI) needle voltage was set at about 1800 V. The mass analyzer is operated in automatic, data-dependent MS/MS acquisition mode, with the threshold set to 10 counts per second of doubly or triply charged precursor ions selected for fragmentation scans. Survey scans of 0.25 sec are recorded from 400 to 1800 amu; up to 3 MS/MS scans are then collected sequentially for the selected precursor ions, recording from 100 to 1800 amu. The collision energy is automatically adjusted in accordance with the m/z value of the precursor ions selected for MS/MS. Selected precursor ions are excluded from repeated selection for 60 sec after the end of the corresponding fragmentation duty cycle. […] One missed tryptic cleavage site was allowed, precursor ion mass tolerance=0.4 Da fragment ion mass tolerance=0.4 Da, protein modifications were allowed for Met-oxide, Cys-acrylamide and N-terminal acetylation. MudPit scoring was typically applied with ‘require bold red’ activated, and using significance threshold score p<0.05. Unique peptide counts (or ‘spectral counts’) and percent sequence coverages for all identified proteins were exported to Scaffold Proteome Software (version 2_06_01, www.proteomesoftware.com) for further bioinformatic analysis (Table 5a). Using output from Mascot, Scaffold validates, organizes, and interprets mass spectrometry data, allowing more easily to manage large amounts of data, to compare samples, and to search for protein modifications.

For test [2], the system named is Hsp90 complexes in K562 cell extract. Nature of the test: Nano-LC-MS/MS of PU-beads pull-downs. Format: binding. Conditions: protein identified in PU-beads pull-down of K562 cell extract, QSTAR-Elite QTof MS. As to the method:
Protein cargo isolated from cell lysate with PU-beads or control-beads was subjected to proteomic analysis by nano liquid chromatography coupled to tandem mass spectrometry (nano LC-MS/MS). Initial protein identification was performed using the Mascot search engine, and was further evaluated using Scaffold Proteome Software (Tables 5a-d).
as §1

B1: AIP (protein, UniProt O00170 1-330, looked up)
AH receptor-interacting …: MADIIARLREDGIQKRVIQEGRGELPDFQDGTKATFHYRTLHSDDEGTVLDDSRARGKPMELIIGKKFKLPVWETIVCTMREGEIAQFLCDIKHVVLYPLVAKSLRNIAVGKDPLEGQRHCCGVAQMREHSSLGHADLDALQQNPQPLIFHMEMLKVESPGTYQQDPWAMTDEEKAKAVPLIHQEGNRLYREGHVKEAAAKYYDAIACLKNLQMKEQPGSPEWIQLDQQITPLLLNYCQCKLVVEEYYEVLDHCSSILNKYDDNVKAYFKRGKAHAAVWNAQEAQADFAKVLELDPALAPVVSRELRALEARIRQKDEEDKARFRGIFSH
Consider B1, for which the “Number of Assigned Spectra, Mia-Paca 2” value in test [1] was 0. Besides, in test [2], the “Number of Assigned Spectra, K562 Prep 1” value came out at 10 and the “Number of Assigned Spectra, K562 Prep 2” value stood at 0.

B2: FAM120A (protein, UniProt Q9NZB2 1-1118, looked up)
Constitutive coactivator of …: MGVQGFQDYIEKHCPSAVVPVELQKLARGSLVGGGRQRPPQTPLRLLVDADNCLHRLYGGFYTDWVSGGQWNHMLGYLAALAKACFGGNIELFVFFNGALEKARLHEWVKRQGNERQTAQQIVSHVQNKGTPPPKVWFLPPVCMAHCIRLALIRFHVKVAQSIEDHHQEVIGFCRENGFHGLVAYDSDYALCNIPYYFSAHALKLSRNGKSLTTSQYLMHEVAKQLDLNPNRFPIFAALLGNHILPDEDLASFHWSLLGPEHPLASLKVRAHQLVLPPCDVVIKAVADYVRNIQDTSDLDAIAKDVFQHSQSRTDDKVIRFKRAIGYYSATSKPMSFHPPHYLAARPGPFGMPGMVPPHVPPQMLNIPQTSLQAKPVAPQVPSPGGAPGQGPYPYSLSEPAPLTLDTSGKNLTEQNSYSNIPHEGKHTPLYERSSPINPAQSGSPNHVDSAYFPGSSTSSSSDNDEGSGGATNHISGNKIGWEKTGSHSEPQARGDPGDQTKAEGSSTASSGSQLAEGKGSQMGTVQPIPCLLSMPTRNHMDITTPPLPPVAPEVLRVAEHRHKKGLMYPYIFHVLTKGEIKIAVSIEDEANKDLPPAALLYRPVRQYVYGVLFSLAESRKKTERLAFRKNRLPPEFSPVIIKEWAAYKGKSPQTPELVEALAFREWTCPNLKRLWLGKAVEDKNRRMRAFLACMRSDTPAMLNPANVPTHLMVLCCVLRYMVQWPGARILRRQELDAFLAQALSPKLYEPDQLQELKIENLDPRGIQLSALFMSGVDMALFANDACGQPIPWEHCCPWMYFDGKLFQSKLLKASREKTPLIDLCDGQADQAAKVEKMRQSVLEGLSFSRQSHTLPFPPPPALPFYPASAYPRHFGPVPPSQGRGRGFAGVCGFGGPYGETVATGPYRAFRVAAASGHCGAFSGSDSSRTSKSQGGVQPIPSQGGKLEIAGTVVGHWAGSRRGRGGRGPFPLQVVSVGGPARGRPRGVISTPVIRTFGRGGRYYGRGYKNQAAIQGRPPYAASAEEVAKELKSKSGESKSSAMSSDGSLAENGVMAEEKPAPQMNGSTGDARAPSHSESALNNDSKTCNTNPHLNALSTDSACRREAALEAAVLNKEE
For B2, the “Number of Assigned Spectra, Mia-Paca 2” value in test [1] stood at 12. In test [2], the “Number of Assigned Spectra, K562 Prep 1” value amounted to 1 and the “Number of Assigned Spectra, K562 Prep 2” value was found to be 1.

B3: TRIPI3 (protein, UniProt Q15645 1-432, looked up)
Pachytene checkpoint protein …: MDEAVGDLKQALPCVAESPTVHVEVHQRGSSTAKKEDINLSVRKLLNRHNIVFGDYTWTEFDEPFLTRNVQSVSIIDTELKVKDSQPIDLSACTVALHIFQLNEDGPSSENLEEETENIIAANHWVLPAAEFHGLWDSLVYDVEVKSHLLDYVMTTLLFSDKNVNSNLITWNRVVLLHGPPGTGKTSLCKALAQKLTIRLSSRYRYGQLIEINSHSLFSKWFSESGKLVTKMFQKIQDLIDDKDALVFVLIDEVESLTAARNACRAGTEPSDAIRVVNAVLTQIDQIKRHSNVVILTTSNITEKIDVAFVDRADIKQYIGPPSAAAIFKIYLSCLEELMKCQIIYPRQQLLTLRELEMIGFIENNVSKLSLLLNDISRKSEGLSGRVLRKLPFLAHALYVQAPTVTIEGFLQALSLAVDKQFEERKKLAAYI
In the case of B3, in test [1], the “Number of Assigned Spectra, Mia-Paca 2” value was 8. In test [2], the “Number of Assigned Spectra, K562 Prep 1” value is given as 3 and the “Number of Assigned Spectra, K562 Prep 2” value is listed as 3.

B4: HEATR6 (protein, UniProt Q6AI08 1-1181, looked up)
HEAT repeat-containing …: MAAVQVVGSWPSVQPREAPREAIPERGNGFRLLSARLCALRPDDSSSARTEIHLLFDQLISENYSEGSGVAPEDVSALLVQACRLVPLNQNHLVSKVSQLIHHLLNRLQVIVDEQHLDFLLAYTISAIHQCSSWTHREILQALAALVYCNGSKCQKYLPELLGNTGLLMKLSDLAQSDPEVRRAAVHCMANLCLSVPGQPYLEEPYQNVCFQAFLTILQSPKSSDMDDITFCMLLQNALKGIQSLLNGGRMKLTQTDELGALLAVLKKFMFHGLPGLNIEMPTVLYPTPLPQYDGRTPIKPQQSESSASRPTLNKKKKSKVKPKKIQQGEEEEKESSGEIEAAPVTGTGRVNLHEGNTWCPSSLGVQSLPLDGSGAAEKDGVSSSFSSSSWKRVSSSESDFSDAEGGMQSKMRSYQAKVRQGALVCFLSTIKSIEKKVLYGYWSAFIPDTPELGSPQSVSLMTLTLKDPSPKTRACALQVLSAILEGSKQFLSVAEDTSDHRRAFTPFSVMIACSIRELHRCLLLALVAESSSQTVTQIIKCLANLVSNAPYDRLKLSLLTKVWNQIKPYIRHKDVNVRVSSLTLLGAIVSTHAPLPEVQLLLQQPCSSGLGNSNSATPHLSPPDWWKKAPAGPSLEETSVSSPKGSSEPCWLIRLCISIVVLPKEDSCSGSDAGSAAGSTYEPSPMRLEALQVLTLLARGYFSMTQAYLMELGEVICKCMGEADPSIQLHGAKLLEELGTGLIQQYKPDSTAAPDQRAPVFLVVMFWTMMLNGPLPRALQNSEHPTLQASACDALSSILPEAFSNLPNDRQMLCITVLLGLNDSKNRLVKAATSRALGVYVLFPCLRQDVIFVADAANAILMSLEDKSLNVRAKAAWSLGNLTDTLIVNMETPDPSFQEEFSGLLLLKMLRSAIEASKDKDKVKSNAVRALGNLLHFLQPSHIEKPTFAEIIEESIQALISTVLTEAAMKVRWNACYAMGNVFKNPALPLGTAPWTSQAYNALTSVVTSCKNFKVRIRSAAALSVPGKREQYGSVDQYARIWNALVTALQKSEDTIDFLEFKYCVSLRTQICQALIHLLSLASASDLPCMKETLELSGNMVQSYILQFLKSGAEGDDTGAPHSPQERDQMVRMALKHMGSIQAPTGDTARRAIMGFLEEILAVCFDSSGSQGALPGLTNQ
Take B4: the “Number of Assigned Spectra, Mia-Paca 2” value in test [1] was 0. Also, in test [2], the “Number of Assigned Spectra, K562 Prep 1” value is 2 and the “Number of Assigned Spectra, K562 Prep 2” value turned out to be 1.

B5: CTTN (protein, UniProt Q14247 1-550, looked up)
Src substrate cortactin: MWKASAGHAVSIAQDDAGADDWETDPDFVNDVSEKEQRWGAKTVQGSGHQEHINIHKLRENVFQEHQTLKEKELETGPKASHGYGGKFGVEQDRMDKSAVGHEYQSKLSKHCSQVDSVRGFGGKFGVQMDRVDQSAVGFEYQGKTEKHASQKDYSSGFGGKYGVQADRVDKSAVGFDYQGKTEKHESQRDYSKGFGGKYGIDKDKVDKSAVGFEYQGKTEKHESQKDYVKGFGGKFGVQTDRQDKCALGWDHQEKLQLHESQKDYKTGFGGKFGVQSERQDSAAVGFDYKEKLAKHESQQDYSKGFGGKYGVQKDRMDKNASTFEDVTQVSSAYQKTVPVEAVTSKTSNIRANFENLAKEKEQEDRRKAEAERAQRMAKERQEQEEARRKLEEQARAKTQTPPVSPAPQPTEERLPSSPVYEDAASFKAELSYRGPVSGTEPEPVYSMEAADYREASSQQGLAYATEAVYESAEAPGHYPAEDSTYDEYENDLGITAVALYDYQAAGDDEISFDPDDIITNIEMIDDGWWRGVCKGRYGLFPANYVELRQ
Turning to B5, the “Number of Assigned Spectra, Mia-Paca 2” value in test [1] is recorded as 2. In test [2], the “Number of Assigned Spectra, K562 Prep 1” value is 6 and the “Number of Assigned Spectra, K562 Prep 2” value is recorded as 6.

B6: NAT10 (protein, UniProt Q9H0A0 1-1025, looked up)
RNA cytidine acetyltransferase: MHRKKVDNRIRILIENGVAERQRSLFVVVGDRGKDQVVILHHMLSKATVKARPSVLWCYKKELGFSSHRKKRMRQLQKKIKNGTLNIKQDDPFELFIAATNIRYCYYNETHKILGNTFGMCVLQDFEALTPNLLARTVETVEGGGLVVILLRTMNSLKQLYTVTMDVHSRYRTEAHQDVVGRFNERFILSLASCKKCLVIDDQLNILPISSHVATMEALPPQTPDESLGPSDLELRELKESLQDTQPVGVLVDCCKTLDQAKAVLKFIEGISEKTLRSTVALTAARGRGKSAALGLAIAGAVAFGYSNIFVTSPSPDNLHTLFEFVFKGFDALQYQEHLDYEIIQSLNPEFNKAVIRVNVFREHRQTIQYIHPADAVKLGQAELVVIDEAAAIPLPLVKSLLGPYLVFMASTINGYEGTGRSLSLKLIQQLRQQSAQSQVSTTAENKTTTTARLASARTLYEVSLQESIRYAPGDAVEKWLNDLLCLDCLNITRIVSGCPLPEACELYYVNRDTLFCYHKASEVFLQRLMALYVASHYKNSPNDLQMLSDAPAHHLFCLLPPVPPTQNALPEVLAVIQVCLEGEISRQSILNSLSRGKKASGDLIPWTVSEQFQDPDFGGLSGGRVVRIAVHPDYQGMGYGSRALQLLQMYYEGRFPCLEEKVLETPQEIHTVSSEAVSLLEEVITPRKDLPPLLLKLNERPAERLDYLGVSYGLTPRLLKFWKRAGFVPVYLRQTPNDLTGEHSCIMLKTLTDEDEADQGGWLAAFWKDFRRRFLALLSYQFSTFSPSLALNIIQNRNMGKPAQPALSREELEALFLPYDLKRLEMYSRNMVDYHLIMDMIPAISRIYFLNQLGDLALSAAQSALLLGIGLQHKSVDQLEKEIELPSGQLMGLFNRIIRKVVKLFNEVQEKAIEEQMVAAKDVVMEPTMKTLSDDLDEAAKEFQEKHKKEVGKLKSMDLSEYIIRGDDEEWNEVLNKAGPNASIISLKSDKKRKLEAKQEPKQSKKLKNRETKNKKDMKLKRKK
Take B6: the “Number of Assigned Spectra, Mia-Paca 2” value in test [1] was 1. Further, in test [2], the “Number of Assigned Spectra, K562 Prep 1” value worked out at 8 and the “Number of Assigned Spectra, K562 Prep 2” value worked out at 3.
